Experimental data published in patent US8980955, “Small molecule inhibitors of replication protein A that also act synergistically with cisplatin” (Indiana University Research and Technology).

Key:
[1] = target: T1, RPA heterotrimer (p70/p34/p14, full-length) (Homo sapiens, UniProt P27694;P15927;P35244 P27694:1-616,P15927:1-270,P35244:1-121); assay: EMSA; inhibited irreversibly by MCI13E; conditions: tags: untagged; label: 5'-32P
Protocol: Considering the differential inhibition observed between the anhydride and halo esters with respect to specificity, experiments were carried out to determine if the isoborneol halo-esters inhibited full-length RPA in an irreversible fashion. Full-length RPA was mixed with MCI13E or vehicle control and the reaction mixtures were then dialyzed overnight. Referring now to FIG. 5. Gel showing irreversible inactivation of full-length heterotrimeric RPA by MCI13E. Incubation of RPA with MCI13E, dialysis and recovery was performed as described for FIG. 3. DNA binding activity of the resulting protein was assessed by EMSA using a 5'-[^32P]-ss 34-base DNA as described in "Methods". Lanes 1-4 pre-dialysis, lanes 5 and 6 post dialysis. […] In fact, the degree of inhibition was similar to that observed for the MCI13E treated RPA before dialysis (FIG. 5 lanes 3 and 4). […] This activity is consistent with MCI13E and F and their reaction with RPA serving as a pharmacodynamic marker of RPA inhibition or as a biomarker for RPA expression and activity.

[2] = target: T2, RPA p70 DBD-A/B (Homo sapiens, UniProt P27694 P27694:181-422); assay: EMSA; not inhibited by MCI13E or MCI13F; conditions: tags: His (pET15b, nickel-NTA purified); label: 5'-32P
T2 chain: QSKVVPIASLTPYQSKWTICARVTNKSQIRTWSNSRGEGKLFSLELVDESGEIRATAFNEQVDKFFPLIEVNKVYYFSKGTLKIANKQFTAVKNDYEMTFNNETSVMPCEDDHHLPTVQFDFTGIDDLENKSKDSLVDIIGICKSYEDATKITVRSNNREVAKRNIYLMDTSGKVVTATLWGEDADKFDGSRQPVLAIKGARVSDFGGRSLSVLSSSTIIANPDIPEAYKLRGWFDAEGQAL

[3] = target: T2, RPA p70 DBD-A/B; assay: FP; 20 nM DNA; 10 mM HEPES pH 7.2, 100 mM NaCl; inhibited irreversibly by CheSS19; conditions: tags: His (pET15b, nickel-NTA purified); label: fluorescein (F)
Protocol: In an experiment reported herein, DBD-A/B was incubated with CheSS 19 and then the reaction mix dialyzed overnight to remove dissociable inhibitor.
Referring now to FIG. 3D. Bar graph showing results of fluorescence polarization analysis of CheSS19 inactivated RPA DBD-A/B. Referring now to FIG. 3D, RPA DBD-A/B was pre-incubated with vehicle (1% DMSO) or CheSS19 (1pmol in 1% DMSO) for 30 minutes at 37° C. Following incubation, the reaction mix was dialyzed versus H1 buffer overnight at 4° C. The protein was recovered and DNA binding activity measured by FP analysis of binding to an F-dT12 substrate was performed as described in "Methods". Bar 1, DNA control, Bar 2, control vehicle treated DBD-A/B, Bar 3, Chess19 treated DBD-A/B. The data represent the mean and range of two independent experiments.
Fluorescence polarization experiments were preformed as previously described (21). SMIs were diluted in H1 buffer (10 mM HEPES, pH 7.2, 1 mM DTT, 0.01% NP-40 and 100 mM NaCl) and the final DMSO concentration was kept below 1%.

[4] = target: T1, RPA heterotrimer (p70/p34/p14, …); assay: EMSA; 12.5 nM DNA; binding inhibited by MCI13E, MCI13F and CheSS19; conditions: tags: untagged; label: 5'-32P
[5] = target: EcSSB (Escherichia coli, UniProt P0AGE0 P0AGE0:2-178); assay: EMSA; 25 nM DNA, 3.3 nM SSB tetramer, 20 mM HEPES pH 7.5, 100 mM NaCl; unaffected by CheSS19, MCI13E, MCI13F; conditions: tags: Enzymatics, Beverly MA; chain copies: 4 stated; label: 5'-32P
Chain of EcSSB (P0AGE0 2-178, one chain of several): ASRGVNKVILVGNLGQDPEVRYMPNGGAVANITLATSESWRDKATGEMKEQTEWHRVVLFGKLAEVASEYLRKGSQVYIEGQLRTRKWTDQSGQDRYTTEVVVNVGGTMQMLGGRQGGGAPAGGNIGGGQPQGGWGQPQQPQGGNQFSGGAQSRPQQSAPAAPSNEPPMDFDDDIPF
Protocol: Referring now to FIG. 6B. CheSS19 titration in EcSSB DNA-binding reactions. CheSS19 (0, 25, 50, 100, and 200 μM) was pre-incubated with EcSSB and binding reactions were carried out. Referring now to FIG. 6C. Titration of MCI13E and MCI13F in EcSSB DNA-binding reactions. Concentrations of MCI13E/F used were: 0, 25, 50, 100, and 200 μM. In all panels, the 'Free' ssDNA is indicated with an arrow and the 'Bound' ssDNA is indicated by brackets. All reactions were performed in the same order and manner as the RPA binding reactions. EcSSB binding was unaffected by CheSS19 and the MCI13E and MCI13F compounds (FIGS. 6A and B).
EMSAs were performed similarly to those for the RPA constructs, with the following exceptions. Reactions contained 25 nM of 5'-[^32P]-labeled 3Pc3 ssDNA and 3.3 nM (assuming homotetramer formation) SSB protein (Enzymatics, Beverly, Mass.). Reactions (20 μL) were carried out in 20 mM HEPES, pH 7.5, 1 mM DTT, 0.01% NP-40, 100 mM NaCl, and resolved by 6% native polyacrylamide gel electrophoresis at 25 mA for 2 hours. Gels were dried and quantified via phosphorimager analysis and ImageQuant software (Molecular Dynamics).

T1 sequence (P27694 whole entry, chain 1 of 3): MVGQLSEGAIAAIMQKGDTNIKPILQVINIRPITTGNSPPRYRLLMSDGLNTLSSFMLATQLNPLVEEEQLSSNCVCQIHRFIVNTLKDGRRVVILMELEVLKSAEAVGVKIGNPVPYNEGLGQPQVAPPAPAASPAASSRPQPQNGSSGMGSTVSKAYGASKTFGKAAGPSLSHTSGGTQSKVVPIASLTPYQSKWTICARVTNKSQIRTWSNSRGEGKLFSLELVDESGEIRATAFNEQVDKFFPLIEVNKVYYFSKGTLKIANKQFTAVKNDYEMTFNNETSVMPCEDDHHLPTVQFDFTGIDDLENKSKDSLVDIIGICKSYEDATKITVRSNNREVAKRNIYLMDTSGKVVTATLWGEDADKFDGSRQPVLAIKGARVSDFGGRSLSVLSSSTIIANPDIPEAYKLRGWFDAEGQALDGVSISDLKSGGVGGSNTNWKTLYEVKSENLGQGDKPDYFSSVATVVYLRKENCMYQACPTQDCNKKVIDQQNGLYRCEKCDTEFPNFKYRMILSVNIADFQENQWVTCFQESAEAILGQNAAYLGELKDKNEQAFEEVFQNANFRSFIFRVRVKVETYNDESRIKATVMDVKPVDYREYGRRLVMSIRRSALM
T1 sequence (P15927 whole entry, chain 2 of 3): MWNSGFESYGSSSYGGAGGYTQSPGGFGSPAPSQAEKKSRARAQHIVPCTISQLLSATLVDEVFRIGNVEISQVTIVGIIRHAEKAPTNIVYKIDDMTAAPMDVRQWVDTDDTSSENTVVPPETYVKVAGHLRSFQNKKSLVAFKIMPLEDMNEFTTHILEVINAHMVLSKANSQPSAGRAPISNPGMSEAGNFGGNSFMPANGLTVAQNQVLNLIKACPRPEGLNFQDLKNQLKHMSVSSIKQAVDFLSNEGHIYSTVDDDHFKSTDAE
T1 sequence (P35244 whole entry, chain 3 of 3): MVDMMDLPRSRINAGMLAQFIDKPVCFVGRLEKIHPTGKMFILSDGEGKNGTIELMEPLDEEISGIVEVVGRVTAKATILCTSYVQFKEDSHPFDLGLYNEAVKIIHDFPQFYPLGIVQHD

CTAGAAAGGGGGAAGAAAGGGAAGAGGCCAGAGA (ssDNA) [34-mer]: binds [1].

TTTTTTTTTTTT (ssDNA) [dT12]: binds [2].

TTTTTTTTTTTT (ssDNA) [F-dT12]: binds [3].

GGAGACCGAAGAGGAAAAGAAGGAGAGAGG (ssDNA) [3Pc3 30-mer]: binds [4]; binds [5].
